Assays:
[1] = Fe(III) affinity of Fe(III) BP from competition with Fe(III) chelates / Fe(III) citrate; assay type: binding; details: E57D mutation; assuming logK=10.25 for 1:1 Fe(III) citrate complex; unit inferred
Description: Family of biosensors. A set of eleven bPBPs with widely varying ligand-binding specificities was selected for engineering biosensor function (Table 2). All were from E. coli except Fe(III) BP, which is from Haemophilus influenzae. Binding specificities and affinities of these proteins for their respective ligands have been characterized (references in Table 2). […] Most of these bPBPs bind at most two or three related ligands with high affinity (micromolar or better). […] Measured ligand dissociation constants in these proteins are typically in the range of 0.1 to 1 μM.
Cysteine point mutations were introduced by the PCR overlap method (Ho et al., Gene 77:51-59, 1989). Mutant proteins typically expressed as well as the wild type protein. […] In the case of Fe(III) BP, all mutations were constructed in the E57D background. […] This permitted straightforward determination of Fe(III) affinity by direct titration with Fe(III) citrate at nanomolar concentrations of Fe(III) BP.

[2] = Fluorimetric titration of Fe(III) BP (E57D) conjugates with Fe(III) citrate; assay type: binding; details: E57D background, read-out: Kd of Fe(III) BP conjugate
Method: Fluorimetry. All measurements were conducted with an SLM Aminco-Bowman series 2 fluorimeter, with sample stirring at 25° C. Fluorescence emission spectra were acquired with excitation and emission slit widths of 4 and 8 nm, respectively. Photomultiplier tube potential was maintained between 400 and 800 volts. Protein concentrations were in the range of 50 to 1000 nM. Fluorophore-specific excitation was at the following approximate wavelengths: tryptophan, 290 nm; acrylodan, 390 nm; fluorescein, 485 nm; pyrene, 340 nm; NBD and NBDE, 490 nm; JPW4039, 485 nm; JPW4042, 470 nm; JPW4045, 470 nm.
Corrections were made for dilution of the protein and for background signal from buffer. Binding curves were fit to binding isotherms using equation 3 or 4, as appropriate.
Analyte affinity measurements. […] The emission wavelength monitored was that of maximum difference in intensity between the ligand-free and bound states. For each conjugate, fluorescence intensiometric observations were fit to a hyperbolic binding isotherm for a two-state model (Marvin et al., Proc. Natl. Acad. Sci. USA 94:4366-4371, 1997): […]

[3] = Fluorescence emission spectra without and with saturating ligand (wavelength shift, ΔIstd, ΔRmax); details: unbound vs ligand-saturated; for ΔIstd: standard intensity change; for ΔRmax: standard ratiometric change
Procedure, shortened: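 Emission spectra of bPBP–fluorophore conjugates (50–1000 nM protein, 25 °C, stirred) recorded without and with saturating ligand, using fluorophore-specific excitation. Wavelength shift, ΔIstd (intensity change at the mid-point wavelength) and ΔRmax (maximal ratiometric change over enumerated band pairs, 2 nm steps, 10 nm width) derived.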

B1: Fe(III) BP E57D: Fe(III) BP with Glu57 substituted by Asp to weaken Fe(III) affinity (protein, UniProt P35755 24-332, looked up, variant E57D)
Iron-utilization periplasmic …: DITVYNGQHKEAATAVAKAFEQETGIKVTLNSGKSEQLAGQLKEEGDKTPADVFYTDQTATFADLSEAGLLAPISEQTIQQTAQKGVPLAPKKDWIALSGRSRVVVYDHTKLSEKDMEKSVLDYATPKWKGKIGYVSTSGAFLEQVVALSKMKGDKVALNWLKGLKENGKLYAKNSVALQAVENGEVPAALINNYYWYNLAKEKGVENLKSRLYFVRHQDPGALVSYSGAAVLKASKNQAEAQKFVDFLASKKGQEALVAARAEYPLRADVVSPFNLEPYEKLEAPVVSATTAQDKEHAIKLIEEAGLK
Kd [1]: ~0.03 µM

B2: Fe(III) BP E203C-acrylodan (conjugate, UniProt P35755 24-332, looked up, variant E203C)
Iron-utilization periplasmic …: DITVYNGQHKEAATAVAKAFEQETGIKVTLNSGKSEQLAGQLKEEGDKTPADVFYTEQTATFADLSEAGLLAPISEQTIQQTAQKGVPLAPKKDWIALSGRSRVVVYDHTKLSEKDMEKSVLDYATPKWKGKIGYVSTSGAFLEQVVALSKMKGDKVALNWLKGLKENGKLYAKNSVALQAVENGEVPAALINNYYWYNLAKCKGVENLKSRLYFVRHQDPGALVSYSGAAVLKASKNQAEAQKFVDFLASKKGQEALVAARAEYPLRADVVSPFNLEPYEKLEAPVVSATTAQDKEHAIKLIEEAGLK
modifications: acrylodan label
Kd [2]: ~138 µM

B3: ribose BP L265C Acrylodan (conjugate, UniProt P02925 26-296, looked up, variant L265C)
Ribose import binding protein …: KDTIALVVSTLNNPFFVSLKDGAQKEADKLGYNLVVLDSQNNPAKELANVQDLTVRGTKILLINPTDSDAVGNAVKMANQANIPVITLDRQATKGEVVSHIASDNVLGGKIAGDYIAKKAGEGAKVIELQGIAGTSAARERGEGFQQAVAAHKFNVLASQPADFDRIKGLNVMQNLLTAHPDVQAVFAQNDEMALGALRALQTAGKSDVMVVGFDGTPDGEKAVNDGKLAATIAQLPDQIGAKGVETADKVLKGEKVQAKYPVDCKLVVKQ
modifications: acrylodan conjugate
ΔIstd [3]: 0.20
ΔRmax [3]: 0.70

B4: ribose BP L265C NBD (conjugate, UniProt P02925 26-296, looked up, variant L265C)
Ribose import binding protein …: KDTIALVVSTLNNPFFVSLKDGAQKEADKLGYNLVVLDSQNNPAKELANVQDLTVRGTKILLINPTDSDAVGNAVKMANQANIPVITLDRQATKGEVVSHIASDNVLGGKIAGDYIAKKAGEGAKVIELQGIAGTSAARERGEGFQQAVAAHKFNVLASQPADFDRIKGLNVMQNLLTAHPDVQAVFAQNDEMALGALRALQTAGKSDVMVVGFDGTPDGEKAVNDGKLAATIAQLPDQIGAKGVETADKVLKGEKVQAKYPVDCKLVVKQ
modifications: NBD dye conjugate
ΔIstd [3]: 0.01
ΔRmax [3]: 0.13

B5: ribose BP T135C JPW4042 (conjugate, UniProt P02925 26-296, looked up, variant T135C)
Ribose import binding protein …: KDTIALVVSTLNNPFFVSLKDGAQKEADKLGYNLVVLDSQNNPAKELANVQDLTVRGTKILLINPTDSDAVGNAVKMANQANIPVITLDRQATKGEVVSHIASDNVLGGKIAGDYIAKKAGEGAKVIELQGIAGCSAARERGEGFQQAVAAHKFNVLASQPADFDRIKGLNVMQNLLTAHPDVQAVFAQNDEMALGALRALQTAGKSDVMVVGFDGTPDGEKAVNDGKLAATIAQLPDQIGAKGVETADKVLKGEKVQAKYPVDLKLVVKQ
modifications: JPW4042 dye conjugate
ΔIstd [3]: 0.02
ΔRmax [3]: 0.35

B6: ribose BP T135C Acrylodan (conjugate, UniProt P02925 26-296, looked up, variant T135C)
Ribose import binding protein …: KDTIALVVSTLNNPFFVSLKDGAQKEADKLGYNLVVLDSQNNPAKELANVQDLTVRGTKILLINPTDSDAVGNAVKMANQANIPVITLDRQATKGEVVSHIASDNVLGGKIAGDYIAKKAGEGAKVIELQGIAGCSAARERGEGFQQAVAAHKFNVLASQPADFDRIKGLNVMQNLLTAHPDVQAVFAQNDEMALGALRALQTAGKSDVMVVGFDGTPDGEKAVNDGKLAATIAQLPDQIGAKGVETADKVLKGEKVQAKYPVDLKLVVKQ
modifications: acrylodan conjugate
ΔIstd [3]: 0.31
ΔRmax [3]: 6.26

B7: ribose BP T135C Fluorescein (conjugate, UniProt P02925 26-296, looked up, variant T135C)
Ribose import binding protein …: KDTIALVVSTLNNPFFVSLKDGAQKEADKLGYNLVVLDSQNNPAKELANVQDLTVRGTKILLINPTDSDAVGNAVKMANQANIPVITLDRQATKGEVVSHIASDNVLGGKIAGDYIAKKAGEGAKVIELQGIAGCSAARERGEGFQQAVAAHKFNVLASQPADFDRIKGLNVMQNLLTAHPDVQAVFAQNDEMALGALRALQTAGKSDVMVVGFDGTPDGEKAVNDGKLAATIAQLPDQIGAKGVETADKVLKGEKVQAKYPVDLKLVVKQ
modifications: fluorescein conjugate
ΔIstd [3]: 0.18
ΔRmax [3]: 1.79

B8: ribose BP T135C NBD (conjugate, UniProt P02925 26-296, looked up, variant T135C)
Ribose import binding protein …: KDTIALVVSTLNNPFFVSLKDGAQKEADKLGYNLVVLDSQNNPAKELANVQDLTVRGTKILLINPTDSDAVGNAVKMANQANIPVITLDRQATKGEVVSHIASDNVLGGKIAGDYIAKKAGEGAKVIELQGIAGCSAARERGEGFQQAVAAHKFNVLASQPADFDRIKGLNVMQNLLTAHPDVQAVFAQNDEMALGALRALQTAGKSDVMVVGFDGTPDGEKAVNDGKLAATIAQLPDQIGAKGVETADKVLKGEKVQAKYPVDLKLVVKQ
modifications: NBD dye conjugate
ΔIstd [3]: 0.08
ΔRmax [3]: 0.22
